Earlier results, collected in patent publication US20050220810A1, “Anti-aging preparation” (Shiseido Company, Ltd., priority 2002, published 2005).

Test system: vascular endothelial cell HMVEC
Settings: general statement on positive controls of TSP-1 induction; no test described

B1: TPA: tissue plasminogen activator, a positive control of the TSP-1 inducing substance (protein, UniProt P00750 36-562, looked up)
Tissue-type plasminogen …: SYQVICRDEKTQMIYQQHQSWLRPVLRSNRVEYCWCNSGRAQCHSVPVKSCSEPRCFNGGTCQQALYFSDFVCQCPEGFAGKCCEIDTRATCYEDQGISYRGTWSTAESGAECTNWNSSALAQKPYSGRRPDAIRLGLGNHNYCRNPDRDSKPWCYVFKAGKYSSEFCSTPACSEGNSDCYFGNGSAYRGTHSLTESGASCLPWNSMILIGKVYTAQNPSAQALGLGKHNYCRNPDGDAKPWCHVLKNRRLTWEYCDVPSCSTCGLRQYSQPQFRIKGGLFADIASHPWQAAIFAKHRRSPGERFLCGGILISSCWILSAAHCFQERFPPHHLTVILGRTYRVVPGEEEQKFEVEKYIVHKEFDDDTYDNDIALLQLKSDSSRCAQESSVVRTVCLPPADLQLPDWTECELSGYGKHEALSPFYSERLKEAHVRLYPSSRCTSQHLLNRTVTDNMLCAGDTRSGGPQANLHDACQGDSGGPLVCLNDGRMTLVGIISWGLGCGQKDVPGVYTKVTNYLDWIRDNMRP
- induction of cell death in vascular endothelial cells: does not induce cell death
